Here are results for eight substances from patent US20240132578A1.

What all share (experiment): cell-based or functional assay
Assay [1] has as its target HIV-1 92UG024 envelope protein (Env) on pseudovirus (HIV-1).
The target in assay [2] is HIV-1 envelope glycoprotein (Env) of isolate QH0692.42, on pseudovirus (HIV-1).
The target in assay [3] is HIV-1 NL43 Env (HIV-1).
The target of assay [4] is HIV-1 envelope glycoprotein (Env) of isolate 93UG077, subtype A (HIV-1).
Assay [5] deals with HIV-1 envelope glycoprotein (Env) of isolate 92WR024, subtype A (HIV-1).
Assay [6] addresses HIV-1 CMU02 Env (HIV-1).
Assay [7] addresses HIV-1 envelope glycoprotein (Env) of isolate SC422661.8, on pseudovirus (HIV-1).
Assay [8] has as its target HIV-1 envelope glycoprotein (Env) of isolate MGRM-Chronic-B-023, on pseudovirus (HIV-1).
Assay [9] concerns the target HIV-1 envelope glycoprotein (Env) of isolate MG RM-A-006, subtype A (HIV-1).
The target of assay [10] is HIV-1 envelope glycoprotein (Env) of isolate MGRM-Chronic-B-001, on pseudovirus (HIV-1).
For assay [11], the target named is HIV-1 Env of isolate MGRM-F1-016 (pseudovirus) (HIV-1).
Assay [12] deals with HIV-1 JR-CSF Env I307A (HIV-1 (isolate JR-CSF, clade B)) (UniProt P20871).
The target of assay [13] is HIV-1 JR-CSF Env D417A (HIV-1 (isolate JR-CSF)) (UniProt P20871).
The target in assay [14] is aMLV envelope.
Assay [15] concerns the target HIV-1 JR-CSF Env I420A (HIV-1 (isolate JR-CSF)) (UniProt P20871).
Assay [16] concerns the target HIV-1 92UG005 envelope protein (Env) on pseudovirus (HIV-1).
The target of assay [17] is HIV-1 Env of isolate MGRM-D-003 (pseudovirus) (HIV-1).
For assay [18], the target named is HIV-1 Env of isolate MGRM-D-022 (pseudovirus) (HIV-1).
Assay [19] concerns the target HIV-1 Env of pseudovirus isolate MGRM-C-010 (clade C) (HIV-1).
The target of assay [20] is HIV-1 Env of isolate MGRM-F1-016 (HIV-1).
Assay [21] has as its target HIV-1 Env of isolate MGRM-A-012 (subtype A) (HIV-1).
Assay [22] has as its target HIV-1 Env of isolate MGRM-AE-008 (subtype AE) (HIV-1).
Assay [23] has as its target HIV-1 Env of isolate MGRM-F1-023 (HIV-1).
For assay [24], the target named is HIV-1 Env of isolate 94KE105 (subtype AC) (HIV-1).
Assay [25] addresses HIV-1 Env of isolate MGRM-Chronic-B-001 (HIV-1).
The target of assay [26] is HIV-1 envelope glycoprotein (Env) of isolate MGRM-C-009 (HIV-1).
The target in assay [27] is HIV-1 Env of isolate APV_13, clade B (HIV-1).
Assay [28] has as its target HIV-1 IAVI-C18 envelope (Env) on pseudovirus (HIV-1).
For assay [29], the target named is HIV-1 Env of pseudovirus MGRM-G-011 (HIV-1).
Assay [30] deals with HIV-1 envelope glycoprotein (Env) of isolate LAVI_C3 (HIV-1).
For assay [31], the target named is HIV-1 envelope glycoprotein (Env) of isolate 93IN905 (HIV-1).
The target of assay [32] is HIV-1 Env of isolate MGRM-Chronic-B-001, clade B (HIV-1).
The target in assay [33] is HIV-1 Env of isolate THR0.18 (Acute), clade B (HIV-1).
Assay [34] concerns the target HIV-1 Env of isolate MGRM-D-029 (clade D pseudovirus) (HIV-1).
For assay [35], the target named is HIV-1 envelope glycoprotein (Env) of isolate MGRM-C-004 (HIV-1).
Assay [36] addresses HIV-1 Env of isolate MGRM-Chronic-B-003, clade B (HIV-1).
For assay [37], the target named is HIV-1 envelope glycoprotein (Env) of isolate MGRM-C-014 (HIV-1).
In assay [38] the target is HIV-1 Env of isolate MGRM-A-013 (clade A pseudovirus) (HIV-1).
The target in assay [39] is HIV-1 Env of isolate 92UG037 (clade A pseudovirus) (HIV-1).
Assay [40] has as its target HIV-1 Env of isolate MGRM-D-005 (HIV-1).
In assay [41] the target is HIV-1 Env of pseudovirus MGRM-D-028 (HIV-1).
The target of assay [42] is HIV-1 Env of isolate 92UG046 (HIV-1).
Assay [43] addresses HIV-1 Env of isolate MGRM-C-019 (subtype C), on pseudovirus (HIV-1).
Assay [44] has as its target HIV-1 Env of isolate MGRM-G-015 (subtype G) (HIV-1).

Some results are limits rather than exact numbers.

Take 4858_P08 (PGT-123) (antibody): the IC50 (ug/mL), pseudovirus neutralization was > 10 µg/mL in assay [1] and 2.49 µg/mL in [16]. Further, the IC50, pseudovirus neutralization in [2] was 0.158 µg/mL; in assay [3], > 10 µg/mL; in assay [4] it was 0.028 µg/mL; in assay [5], > 50 µg/mL; in assay [6], > 10 µg/mL; in assay [7] it was 0.039 µg/mL. The IC50, pseudovirus neutralization in assay [8] is 0.055 µg/mL; in assay [9], > 50 µg/mL; in assay [10], 0.15 µg/mL; in assay [14], > 10 µg/mL. The IC50 (µg/mL), pseudovirus neutralization in [11] is 4.95 µg/mL. Also, the Fold IC50 increase relative to wild-type in [12] amounted to 5.9 fold. Also, the Fold IC50 increase relative to wild-type (pseudovirus neutralization) in [13] was 0.7 fold; in assay [15] it was 3.2 fold.
For the substance 5114_A19 (PGT-128) (antibody), the IC50 (µg/mL), pseudovirus neutralization in assay [17] was 0.019 µg/mL; in assay [18], > 50 µg/mL; in [20], 1.21 µg/mL; in [23], 0.007 µg/mL; in [25], > 50 µg/mL. Further, the IC50, pseudovirus neutralization is > 50 µg/mL in [19], 0.025 µg/mL in assay [21], > 50 µg/mL in assay [22] and 0.007 µg/mL in assay [24]. Also, the Fold IC50 increase relative to wild-type in assay [12] was 3.7 fold. For the same substance, the Fold IC50 increase relative to wild-type (pseudovirus neutralization) in assay [13] was 0.5 fold; in assay [15] it was 0.8 fold.
For the substance 5145_B14 (PGT-127) (antibody), the IC50, pseudovirus neutralization is 0.129 µg/mL in assay [2]; 0.055 µg/mL in [4]; > 50 µg/mL in [5]; 36.7 µg/mL in assay [7]; > 50 µg/mL in assay [8]; > 50 µg/mL in assay [9]. In [10], the IC50, pseudovirus neutralization was > 50 µg/mL. Besides, in assay [11], the IC50 (µg/mL), pseudovirus neutralization was > 50 µg/mL. Also, the Fold IC50 increase relative to wild-type in assay [12] amounted to 10.2 fold. Also, the Fold IC50 increase relative to wild-type (pseudovirus neutralization) in [13] came to 0.4 fold; in [15], 1.8 fold.
In the case of 5123_A06 (PGT-125) (antibody), the IC50 (ug/mL), pseudovirus neutralization in assay [1] and in [16] was > 10 µg/mL each time. Moreover, the IC50, pseudovirus neutralization in assay [2] is 0.048 µg/mL; in [3], > 10 µg/mL; in [4], 0.012 µg/mL; in assay [5] it was 35.5 µg/mL; in assay [6], > 10 µg/mL; in [7], 30.1 µg/mL. Besides, the IC50, pseudovirus neutralization was > 50 µg/mL in assay [8], > 50 µg/mL in assay [9], > 50 µg/mL in assay [10] and > 10 µg/mL in assay [14]. In [11], the IC50 (µg/mL), pseudovirus neutralization is > 50 µg/mL. The Fold IC50 increase relative to wild-type in assay [12] came to 5 fold. The values for the Fold IC50 increase relative to wild-type (pseudovirus neutralization) in assay [13] and in assay [15] were 0.5 fold and 1.1 fold, respectively.
For 5136_H01 (PGT-131) (antibody), the IC50 (µg/mL), pseudovirus neutralization in assay [17] is 19.6 µg/mL; in assay [18], > 50 µg/mL; in assay [20] it was > 50 µg/mL; in assay [23], > 50 µg/mL; in assay [25], > 50 µg/mL. Moreover, the IC50, pseudovirus neutralization was > 50 µg/mL in assay [19], > 50 µg/mL in assay [21], > 50 µg/mL in [22] and 0.013 µg/mL in [24]. For the same substance, the Fold IC50 increase relative to wild-type in [12] is > 170 fold. Also, the Fold IC50 increase relative to wild-type (pseudovirus neutralization) came out at 1 fold in [13] and 153 fold in assay [15].
In the case of 1495_C14 (PGC14) (antibody), the IC50 (µg/ml), pseudovirus neutralization in assay [26] was > 50 µg/mL; in assay [27], > 50 µg/mL; in [29], > 50 µg/mL; in assay [30] it was 12 µg/mL; in [31], 19 µg/mL; in assay [32], > 50 µg/mL. Further, the IC50 (µg/ml), pseudovirus neutralization in assay [33], in [35], in assay [36], in assay [37], in assay [38] and in assay [39] was > 50 µg/mL each time. In addition, the neutralization IC50 in assay [28] was > 50 µg/mL. For the same substance, in [34], the IC50, pseudovirus neutralization was > 50 µg/mL.
Turning to VRC01 (antibody), the IC50 (µg/mL), pseudovirus neutralization is > 50 µg/mL in [40], 12.7 µg/mL in [42] and 0.548 µg/mL in assay [44]. In addition, in assay [41], the IC50, pseudovirus neutralization is 0.377 µg/mL. Also, in assay [43], the IC50, single-round pseudovirus neutralization amounted to 1.13 µg/mL.
Take 5147_N06 (PGT-130) (antibody): the IC50 (µg/mL), pseudovirus neutralization in assay [17] was 0.651 µg/mL; in [18], > 50 µg/mL; in [20] it was > 50 µg/mL; in [23], 0.05 µg/mL; in assay [25], > 50 µg/mL. Moreover, the IC50 (ug/mL), pseudovirus neutralization was > 10 µg/mL in assay [1] and 0.474 µg/mL in assay [16]. For the same substance, the IC50, pseudovirus neutralization in assay [3] is > 10 µg/mL; in assay [19], > 50 µg/mL; in assay [21], > 50 µg/mL; in assay [6], > 10 µg/mL; in assay [22] it was > 50 µg/mL; in assay [24], 0.004 µg/mL. In addition, in [14], the IC50, pseudovirus neutralization is > 10 µg/mL. For the same substance, the Fold IC50 increase relative to wild-type in assay [12] was 1000 fold. The values for the Fold IC50 increase relative to wild-type (pseudovirus neutralization) in assay [13] and in assay [15] were 1 fold and 9.8 fold, respectively.
